{
  "source": "paper doi:10.1101/2025.08.27.672771",
  "about": "(bioRxiv, 2025)",
  "target": "the molecule itself",
  "test": "SEC",
  "data": [
    {"protein": "human TRPC3 (hTRPC3) channel, GFP-MBP-tagged (natural protein, UniProt Q13507 86-921, looked up) MREKGRRQAVRGPAFMFNDRGTSLTAEEERFLDAAEYGNIPVVRKMLEESKTLNVNCVDYMGQNALQLAVGNEHLEVTELLLKKENLARIGDALLLAISKGYVRIVEAILNHPGFAASKRLTLSPCEQELQDDDFYAYDEDGTRFSPDITPIILAAHCQKYEVVHMLLMKGARIERPHDYFCKCGDCMEKQRHDSFSHSRSRINAYKGLASPAYLSLSSEDPVLTALELSNELAKLANIEKEFKNDYRKLSMQCKDFVVGVLDLCRDSEEVEAILNGDLESAEPLEVHRHKASLSRVKLAIKYEVKKFVAHPNCQQQLLTIWYENLSGLREQTIAIKCLVVLVVALGLPFLAIGYWIAPCSRLGKILRSPFMKFVAHAASFIIFLGLLVFNASDRFEGITTLPNITVTDYPKQIFRVKTTQFTWTEMLIMVWVLGMMWSECKELWLEGPREYILQLWNVLDFGMLSIFIAAFTARFLAFLQATKAQQYVDSYVQESDLSEVTLPPEIQYFTYARDKWLPSDPQIISEGLYAIAVVLSFSRIAYILPANESFGPLQISLGRTVKDIFKFMVLFIMVFFAFMIGMFILYSYYLGAKVNAAFTTVEESFKTLFWSIFGLSEVTSVVLKYDHKFIENIGYVLYGIYNVTMVVVLLNMLIAMINSSYQEIEDDSDVEWKFARSKLWLSYFDDGKTLPPPFSLVPSPKSFVYFIMRIVNFPKCRRRRLQKDIEMGMGNSKSRLNLFTQSNSRVFESHSFNSILNQPTRYQQIMKRLIKRYVLKAQVDKENDEVNEGELKEIKQDISSLRYELLEDKSQATEELAILIHKLSEKLNPSMLRCE", "values": [
      {"measurement": "stoichiometry N", "result": 4}
    ]}
  ]
}
